PMC10784544, “Ferric reduction by a CYBDOM protein counteracts increased iron availability in root meristems induced by phosphorus deficiency” (Nature Communications, 2024)

Substrate: O=C1O[C@H]([C@@H](O)CO)C(O)=C1O
Experiment: two-electrode voltage clamp in Xenopus oocytes, trans-plasma membrane current
Type: cell-based, Arabidopsis thaliana
Settings: cytosolic electron donor, raised by injection; ferricyanide as extracellular electron acceptor

B1: HYP1 (… TO LOW P1) (Arabidopsis thaliana) (protein)
chain: QSLCNTHRFTNNLAFADCSDLSALGSFLHWTYNEQNGTVSIAYRHPGTSASSWVAWGLNPSSTQMVGTQALVAFTNTTTNQFQAYTSSVSSYGTRLERSSLSFGVSGLSATLVSGEVTIFATLELSPNLITANQLWQVGPVVNGVPASHQTSGDNMRSSGRIDFRTGQASAGGGGSGDRLRKRNTHGVLNAVSWGVLMPMGAMMARYMKVFADPTWFYLHIAFQVSGYVIGVAGWATGIKLGNDSPGTSYSTHRNLGIALFTFATLQVFALLVRPKPDHKYRTYWNVYHHTVGYTTIILSIVNIFKGFDILDPEDKWRWAYIGILIFLGACVLILEPLTWFIVLRRKSRGGNTVAAPTSSKYSNGVNGTTTTGPHHQDA
notes: cDNA in pGEMHE, cRNA-injected Xenopus laevis oocytes
Work on B1 yielded a Km of 4 mM.
